Common to all, as to details: both partners purified
For experiment [1], the target named is T1, α-cobratoxin, biotinylated (Naja kaouthia, UniProt P01391, biotin (EZ-Link NHS-PEG4-Biotin, 1:1.25 toxin:biotinylation reagent molar ratio)). Briefly: BLI; […]) biosensors; […]; dissociation for 600 s in HEPES-MES pH 5.0; 25°C; 1:1 binding model, […].
Experiment [2] addresses T1, α-cobratoxin, biotinylated. Briefly: BLI; […]) biosensors; […]; dissociation for 600 s in HEPES-MES pH 4.0; 25°C; 1:1 binding model, […].
The target of experiment [3] is T1, α-cobratoxin, biotinylated. Put plainly: BLI; […]) biosensors; […]; dissociation for 600 s in HEPES-MES pH 6.0; 25°C; 1:1 binding model, […].
Experiment [4] concerns the target T1, α-cobratoxin, biotinylated. Put plainly: BLI; […]) biosensors; […]; dissociation for 600 s in HEPES-MES pH 4.5; 25°C; 1:1 binding model, […].
Experiment [5] deals with T1, α-cobratoxin, biotinylated. Briefly: BLI; […]) biosensors; […]; dissociation for 600 s in HEPES-MES pH 3.5; 25°C; 1:1 binding model, […].
Experiment [6] addresses T1, α-cobratoxin, biotinylated. Put plainly: BLI; […]) biosensors; […]; association in HEPES-MES pH 7.4 for 300 s, dissociation in HEPES-MES pH 5.5 for 600 s; 1:1 binding model, […].
Experiment [7] addresses T1, α-cobratoxin, biotinylated. Put plainly: BLI; […]) biosensors; […]; dissociation for 600 s in HEPES-MES pH 7.4; 25°C; 1:1 binding model, […].
The target of experiment [8] is T1, α-cobratoxin, biotinylated. Put plainly: BLI; […]) biosensors; […]; dissociation for 600 s in HEPES-MES pH 5.5; 25°C; 1:1 binding model, […].
The target in experiment [9] is T1, α-cobratoxin, biotinylated. Put plainly: BLI; […]) biosensors; […]; dissociation for 600 s in HEPES-MES pH 6.5; 25°C; 1:1 binding model, […].
The target of experiment [10] is T2, biotinylated α-cobratoxin (Naja kaouthia, UniProt P01391).
T2 construct: source: bought: Latoxan, then biotinylated
T2 sequence (P01391 whole entry): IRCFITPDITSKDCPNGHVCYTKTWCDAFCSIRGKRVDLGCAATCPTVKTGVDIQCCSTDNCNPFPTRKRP
Put plainly: BLI.

The target in the next experiment is T3, α-cobratoxin (Naja kaouthia, UniProt P01391).
T3 construct: source: bought: Latoxan
Put plainly: SPR; […] (Biacore 8K, 25°C); […]; dissociation 300 s in running buffer of pH 7.4 or 5.5.

In experiment [11] the target is T1, α-cobratoxin, biotinylated. Put plainly: BLI; […]) biosensors; […]; association in HEPES-MES pH 7.4 for 300 s, dissociation in HEPES-MES pH 7.4 for 600 s; 1:1 binding model, […].
In a further experiment the target is biotinylated myotoxin II (Bothrops asper, UniProt P24605, biotin (EZ-Link NHS-PEG4-Biotin, 1:1.25 toxin:reagent molar ratio)). Put plainly: BLI.
Sequence of biotinylated myotoxin II (P24605 17-137): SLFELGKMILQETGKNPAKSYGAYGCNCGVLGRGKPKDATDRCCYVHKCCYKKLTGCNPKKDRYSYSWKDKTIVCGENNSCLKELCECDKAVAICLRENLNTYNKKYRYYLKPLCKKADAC
In a further experiment the target is T4, myotoxin II (Bothrops asper, UniProt P24605).
T4 construct: source: purified from the venom of B. asper (CM-Sephadex C25, RP-HPLC)
T4 sequence (P24605 17-137): as above
Put plainly: […] (1:20) in PBS pH 7.4 and pH 6, 1 h at room temperature.

T1 sequence (P01391 whole entry): as the sequence (P01391 whole entry) above

B1: 2554_01_D11 Fab (Fab, V domains shown)
VH: QVQLVQSGAEVKKPGSSVKVSCKASGGTFSSYAISWVRQAPGQGLEWMGGIIPIFGTANYAQKFQGRVTITADESTSTAYMELRSLRSDDTAVYYCARDNLGYCSGGSCYSDYYYYYMDVWGQGTLVTVSS
VL: NFMLTQPRSVSESPGKTVTISCTRSSGSIGSDYVHWYQQRPGSSPTTVIYEDNQRPSGVPDRFSGSIDSSSNSASLTISGLKTEDEADYYCQSYDRSNHEVVFGGGTKLTVL
Consider B1, for which the koff was determined as 0.00043 s⁻¹ in [1]; 0.001 s⁻¹ in experiment [2]; 0.0003 s⁻¹ in experiment [3]; 0.00065 s⁻¹ in experiment [4]; 0.0036 s⁻¹ in experiment [5]; 0.0004 s⁻¹ in [6]. In addition, the koff in [7] was 0.00026 s⁻¹; in [8], 0.00039 s⁻¹; in [9] it was 0.00027 s⁻¹. Also, the Kd in experiment [6] stood at 8.7 nM. In addition, in [6], the kon was 46000 M⁻¹ s⁻¹.

B2: Fab: 2554_01_D11 (Fab, V domains shown)
VH: QVQLVQSGAEVKKPGSSVKVSCKASGGTFSSYAISWVRQAPGQGLEWMGGIIPIFGTANYAQKFQGRVTITADESTSTAYMELRSLRSDDTAVYYCARDNLGYCSGGSCYSDYYYYYMDVWGQGTLVTVSS
VL: NFMLTQPRSVSESPGKTVTISCTRSSGSIGSDYVHWYQQRPGSSPTTVIYEDNQRPSGVPDRFSGSIDSSSNSASLTISGLKTEDEADYYCQSYDRSNHEVVFGGGTKLTVL
notes: also called Fab D11; source: purified
Turning to B2, in experiment [10], the binding result is recorded as “binds”.

B3: Fab: 2555_01_A01 (Fab, V domains shown)
VH: QVQLVQSGAEVKKPGSSVKVSCKASGGTFSSYAISWVRQAPGQGLEWMGGIIPIFGTANYAQKFQGRVTITADESTSTAYMELRSLRSDDTAVYYCARDNLGYCSGGSCYSDYYYYYMDVWGQGTLVTVSS
VL: SYELTQPPSVSVAPGRTATITCEGDNIGQQIVHWYQQKPGQAPVAVISSDSDRPSGIPERFSGSNSGNTATLTISRVEAGDEADYYCQVWDSGSDHVVFGGGTKVTVL
notes: also called Fab A01; source: purified
Regarding B3, the binding result in [10] was “binds”.

B4: IgG: 2555_01_A01-YTE (antibody, V domains shown)
VH: QVQLVQSGAEVKKPGSSVKVSCKASGGTFSSYAISWVRQAPGQGLEWMGGIIPIFGTANYAQKFQGRVTITADESTSTAYMELRSLRSDDTAVYYCARDNLGYCSGGSCYSDYYYYYMDVWGQGTLVTVSS
VL: SYELTQPPSVSVAPGRTATITCEGDNIGQQIVHWYQQKPGQAPVAVISSDSDRPSGIPERFSGSNSGNTATLTISRVEAGDEADYYCQVWDSGSDHVVFGGGTKVTVL
notes: also called IgG1 A01; source: CHO cells, transiently expressed, purified; copies: 2 + 2
Consider B4, for which, in the experiment with α-cobratoxin, the binding result is listed as “binds”.

B5: TPL0197_01_C08 Fab (Fab, V domains shown)
VH: EVQLVQSGAEVKKPGASVKVSCKASGYTFTSYGISWVRQAPGQGLEWMGWISAYNGNTNYAQKLQGRVTMTTDTSTSTAYMELRSLRSDDTAVYYCAREEYCSSTSCYVGNYYGMDVWGQGTLVTVSS
VL: DIQMTQSPSSLSASVGDRVTITCQASQDISNYLNWYQQKPGKAPKLLIYAASSLESGVPSRFSGSGSGTEFTLTITNLQVDDFATYYCQRYDSNFAFGQGTKVEIK
For the molecule B5, the koff was 0.0073 s⁻¹ in experiment [1]; 0.00085 s⁻¹ in experiment [11]; 0.28 s⁻¹ in experiment [2]; 0.0015 s⁻¹ in experiment [3]; 0.054 s⁻¹ in experiment [4]; 1.2 s⁻¹ in experiment [5]. Moreover, the koff in [6] was determined as 0.0058 s⁻¹; in [7], 0.00069 s⁻¹; in experiment [8] it was 0.0041 s⁻¹; in [9], 0.00077 s⁻¹. The Kd in experiment [11] stood at 64 nM. Also, the kon in [11] was found to be 11000 M⁻¹ s⁻¹; in experiment [6] it was 3800 M⁻¹ s⁻¹.

B6: IgG: TPL0197_01_C08-YTE (antibody, V domains shown)
VH: EVQLVQSGAEVKKPGASVKVSCKASGYTFTSYGISWVRQAPGQGLEWMGWISAYNGNTNYAQKLQGRVTMTTDTSTSTAYMELRSLRSDDTAVYYCAREEYCSSTSCYVGNYYGMDVWGQGTLVTVSS
VL: DIQMTQSPSSLSASVGDRVTITCQASQDISNYLNWYQQKPGKAPKLLIYAASSLESGVPSRFSGSGSGTEFTLTITNLQVDDFATYYCQRYDSNFAFGQGTKVEIK
notes: also called IgG1 C08; source: CHO cells, transiently expressed, purified; copies: 2 + 2
Turning to B6, in the experiment with α-cobratoxin, the binding result is listed as “binds”.

B7: IgG: TPL0039_05_E02-YTE (antibody, V domains shown)
VH: QVQLLESGGGLVQPGRSLRLSCAASGFTFSSYGLHWVRQAPGKGLEWVAVISYDGSNKYYADSVKGRFTISRDNSKNTLYLQMNSLRAEDTAVYYCASTLQQLDAFDIWGQGTLVTVSS
VL: NFMLTQPHSVSESPGKTVTISCTRSSGSIASNYVQWYQQRPGTSPTIMIYEDNQRPSGVPDRFSGAIDSSSNSASLTISGLKTEDEADYYCQSYDSSSVVFGGGTKVTVL
notes: copies: 2 + 2
Consider B7, for which, in the experiment with biotinylated myotoxin II, the Kd was under 0.001 nM and the off-rate constant (koff) is under 1e-07 s⁻¹.

B8: IgG: TPL0039_05_B04-YTE (antibody, V domains shown)
VH: EVQLLESGGGVVQPGRSLRLSCAASGFTFSSYGMHWVRQAPGKGLEWVAVISYDGSNKYYADSVKGRFTISRDNSKNTLYLQMNSLRAEDTAVYYCARVGENEAFDIWGQGTMVTVSS
VL: NFMLTQPHSVSESPGKTVTISCTRSSGSIARNYVQWYQQRPGSAPTTVIYEDNQRPSGVPDRFSGSIDSSSNSASLTISGLKTEDEADYYCQSYDSSTVVFGGGTKLTVL
notes: also called IgG1 B04-YTE; source: CHO cells, transiently expressed, purified; copies: 2 + 2
In the case of B8, the “stoichiometry N” value with myotoxin II turned out to be 2 antigen per IgG1.

B9: IgG: TPL0039_05_B12-YTE (antibody, V domains shown)
VH: EVQLVESGGGVVQPGRSLRLSCAASGFTFSSYGMHWVRQAPGKGLEWVAVISYDGSNKYYADSVKGRFTISRDNSKNTLYLQMNSLRAEDTAVYYCAGWTEGDAFDIWGQGTLVTVSS
VL: NFMLTQPHSVSESPGKTVTISCTRSSGSIASNYVQWYQQRPGSAPSTVIYEDNRRPSGVPDRFSGSIDSASNSASLTISGLKTEDEADYYCQSYDSSSVVFGGGTKITVL
notes: copies: 2 + 2
Take B9: in the experiment with biotinylated myotoxin II, the Kd was under 0.001 nM.
